Consider four molecules from paper doi:10.1101/2025.02.19.638559, “The architecture, assembly, and evolution of a complex flagellar motor” (bioRxiv, 2025).

The target in experiment [1] is FlgY_(15–172), FlgY without the predicted signal peptide (C. jejuni 81-176). Briefly: SEC; Superdex 200 Increase 10/300 GL; 20 mM Tris-HCl pH 8.0, 300 mM NaCl. On the technique in general: In gel filtration, larger molecules generally elute earlier.
The target in experiment [2] is FlgY_(90–172) (C. jejuni 81-176). The experiment is described as above.
For experiment [3], the target named is T1, PflB_(113–820) (C. jejuni 81-176, UniProt A0A6F9L7Y3 113-820).
T1 construct: PflB of C. jejuni 81-176, residues 113-820; 178-820 resolved in the cryo-EM structure; also called PflB_(178–820) (the part built in the model)
T1 sequence: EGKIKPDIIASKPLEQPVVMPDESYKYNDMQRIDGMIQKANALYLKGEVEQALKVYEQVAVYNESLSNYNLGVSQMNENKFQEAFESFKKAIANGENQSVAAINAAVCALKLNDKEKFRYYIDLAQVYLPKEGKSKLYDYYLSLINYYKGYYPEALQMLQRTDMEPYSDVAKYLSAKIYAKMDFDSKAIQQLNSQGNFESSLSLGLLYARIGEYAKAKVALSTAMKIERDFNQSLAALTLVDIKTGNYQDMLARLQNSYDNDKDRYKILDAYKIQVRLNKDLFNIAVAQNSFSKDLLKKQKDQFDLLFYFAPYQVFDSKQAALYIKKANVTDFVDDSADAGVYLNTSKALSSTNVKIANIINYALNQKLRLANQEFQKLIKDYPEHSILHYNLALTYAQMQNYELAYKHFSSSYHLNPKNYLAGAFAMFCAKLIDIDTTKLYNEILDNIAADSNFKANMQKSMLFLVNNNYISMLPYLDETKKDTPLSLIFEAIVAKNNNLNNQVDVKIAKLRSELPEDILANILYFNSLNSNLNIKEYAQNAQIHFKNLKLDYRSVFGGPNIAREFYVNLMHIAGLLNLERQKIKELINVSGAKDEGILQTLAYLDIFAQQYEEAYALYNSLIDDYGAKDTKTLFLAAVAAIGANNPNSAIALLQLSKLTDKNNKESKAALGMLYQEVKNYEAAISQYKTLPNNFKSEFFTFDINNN
Briefly: cryo-EM structure; single-particle cryo-EM of the purified PflA16-788 and PflB113-820 complex at 0.4 mg/ml; 3.23 Å. Conditions: both partners purified.

Experiment [4] deals with T2, PflA_(16–788)-Strep (C. jejuni 81-176, UniProt Q46092 16-788).
T2 chain: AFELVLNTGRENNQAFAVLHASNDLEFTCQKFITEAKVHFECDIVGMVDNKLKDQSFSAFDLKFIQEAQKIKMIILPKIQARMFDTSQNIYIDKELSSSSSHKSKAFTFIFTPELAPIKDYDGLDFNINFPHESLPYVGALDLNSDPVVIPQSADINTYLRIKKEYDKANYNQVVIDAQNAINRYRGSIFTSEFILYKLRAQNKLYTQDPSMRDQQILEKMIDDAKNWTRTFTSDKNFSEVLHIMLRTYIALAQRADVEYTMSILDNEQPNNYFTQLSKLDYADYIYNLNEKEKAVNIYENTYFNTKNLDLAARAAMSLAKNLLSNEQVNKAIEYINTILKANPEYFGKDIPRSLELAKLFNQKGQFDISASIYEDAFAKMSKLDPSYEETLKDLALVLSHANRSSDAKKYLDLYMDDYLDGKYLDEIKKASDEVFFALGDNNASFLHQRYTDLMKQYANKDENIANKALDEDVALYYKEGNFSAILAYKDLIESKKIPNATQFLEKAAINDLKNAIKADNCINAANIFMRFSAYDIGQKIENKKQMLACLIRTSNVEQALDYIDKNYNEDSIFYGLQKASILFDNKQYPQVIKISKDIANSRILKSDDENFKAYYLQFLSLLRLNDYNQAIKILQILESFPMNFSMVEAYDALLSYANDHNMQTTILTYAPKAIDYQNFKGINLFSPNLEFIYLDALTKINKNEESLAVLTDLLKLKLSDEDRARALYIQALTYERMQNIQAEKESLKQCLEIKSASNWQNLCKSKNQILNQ
Briefly: MST.

Turning to “FlgY_(15–172), FlgY without the predicted signal peptide (domain or fragment)”, the stoichiometry N (usually a count of units in the complex or per binding partner) in experiment [1] was 2.

For the molecule FlgY_(90–172) (domain or fragment), the stoichiometry N in experiment [2] amounted to 2.

B1: PflA_(16–788) of the purified PflA_(16–788) and PflB_(113–820) complex (domain or fragment)
chain: T2 chain
notes: PflA of C. jejuni 81-176, residues 16-788; only 16-163 (β-sandwich domain and flexible loop) are resolved in the cryo-EM structure; PflA16-788 was cloned both in pET22b (C-terminal 6×His) and in pET26b (C-terminal Strep-tag); also called PflA_(16–163) (the part resolved in the map)
Turning to B1, in experiment [3], the “stoichiometry N” value amounted to 1.

B2: FlgY_(15–172), FlgY without the predicted signal peptide (domain or fragment)
chain: VFGAEQDCEQYFEARKAQIELQTREFDEARQSLEAYKASFEALQKERLENLEKKEAEVNATLAKIEELKLENARLVEEQQKILNSINDKTQGRVKEIYSQMKDAAIADVLSQMDAEDASKIMLSLESRKISGVLSKMDPKKASELTLLLKNLDNNASN
For B2, the Kd (usually the concentration at which binding is half-saturated) in experiment [4] came to 3.5 µM.
